In patent publication US20210063414A1, “METHODS FOR PREVENTING AND/OR TREATING BONE LOSS CONDITIONS BY MODULATING IRISIN” (Dana-Farber Cancer Institute, Inc., priority 2018, published 2021):

Target: T1, MLO-Y4 cell surface proteins (Mus musculus, UniProt P41216)
T1 construct: endogenous in cells; host or cells: MLO-Y4
T1 sequence (P41216 1-699): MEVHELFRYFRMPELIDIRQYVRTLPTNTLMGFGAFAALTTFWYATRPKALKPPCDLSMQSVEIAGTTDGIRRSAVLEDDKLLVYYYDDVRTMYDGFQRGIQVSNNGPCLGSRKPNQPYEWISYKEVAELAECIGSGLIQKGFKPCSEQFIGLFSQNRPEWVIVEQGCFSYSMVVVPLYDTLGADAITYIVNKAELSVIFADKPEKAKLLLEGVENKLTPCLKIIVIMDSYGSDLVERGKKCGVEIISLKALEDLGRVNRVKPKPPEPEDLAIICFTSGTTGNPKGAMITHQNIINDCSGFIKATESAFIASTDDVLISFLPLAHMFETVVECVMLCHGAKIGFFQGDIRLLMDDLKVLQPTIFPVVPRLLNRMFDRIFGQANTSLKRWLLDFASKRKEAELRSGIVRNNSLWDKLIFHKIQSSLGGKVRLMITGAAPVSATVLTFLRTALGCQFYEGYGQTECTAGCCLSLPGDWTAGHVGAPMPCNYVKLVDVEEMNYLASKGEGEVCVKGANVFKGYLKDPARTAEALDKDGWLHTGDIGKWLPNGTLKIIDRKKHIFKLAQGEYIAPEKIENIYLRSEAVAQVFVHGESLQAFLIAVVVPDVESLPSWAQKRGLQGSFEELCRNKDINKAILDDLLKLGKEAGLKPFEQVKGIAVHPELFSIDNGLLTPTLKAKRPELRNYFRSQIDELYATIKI
Assay: Crosslinking/co-immunoprecipitation/mass spectrometry (TMT quantitative proteomics) to identify irisin receptors
Type: binding
Details: co-precipitated protein Acsl1 (ACSL1_MOUSE)
Outline: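 Relative protein abundance came from 6-plex TMT MS3 quantitation on an Orbitrap Fusion Lumos, after in-gel trypsin digestion of Coomassie-stained SDS-PAGE lanes. Input was a Ni-NTA pulldown (250 mM imidazole elution) of lysates from murine MLO-Y4 cells. These cells were treated on ice with His-tagged irisin or adipsin (10 nM, 20 min) in serum-free medium, then crosslinked with 1.5 mM DTSSP for 30 min.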

B1: irisin: secreted cleaved form of FNDC5; recombinant human/mouse irisin with C-terminal his tag produced in HEK293 cells (protein)
chain: DSPSAPVNVTVRHLKANSAVVSWDVLEDEVVIGFAISQQKKDVRMLRFIQEVNTTTRSCALWDLEEDTEYIVHVQAISIQGQSPASEPVLFKTPREAEKMASKNKDEVTMKE
modifications: left off: small tags and cut ends
notes: secreted cleaved form of FNDC5; recombinant human/mouse irisin with C-terminal his tag produced in HEK293 cells
  TMT signal-to-noise ratio: 192.15
  irisin/adipsin TMT signal-to-noise ratio: 0.532
